According to PMC10089224 (2023):
Bridges are numbered along the chain shown (N, C = ends). Where no end group is shown, it is not given here. [ ]: non-standard residue; d: D form.

Experiments:
[1] = target: T1, CPI1 (synthetic construct, thioether N-17); assay: ATPase activity inhibition assay (NADH-coupled), no LTC4
T1 chain: {CH2CO}-[dY]FWGNLHWYYEQFDSTC

[2] = target: T2, CPI1 (synthetic construct, thioether N-17); assay: ATPase activity inhibition assay (NADH-coupled), with 3.5 µM LTC4
T2 chain: {CH2CO}-[dY]FWGNLHWYYEQFDSTC

B1: MRP1 (bMRP1) (protein)
chain: MALRDFCSVDGSDLFWEWNVTWNTSNPDFTKCFQNTVLVWVPCSYLWVCFPFYFLYLSHHDRGYIQMTHLNKAKTALGFLLWIVCWADLFYSFWERSMGKLLAPVFLVSPTLLGITMLLATFLIQIERRRGVQSSGIMLTFWLIALLCALAILRSKIMTALKEDARVDVFRDVTFYIYFSLVLIQLVLSCFSDRSPLFSETINDPNPCPESSASFLSRITFWWITGMMVQGYRQPLESTDLWSLNKEDTSEQVVPVLVKNWKKECAKSRKQPVKIVYSSKDPAKPKGSSKVDVNEEAEALIVKCPQKERDPSLFKVLYKTFGPYFLMSFLFKAVHDLMMFAGPEILKLLINFVNDKKAPEWQGYFYTALLFISACLQTLVLHQYFHICFVSGMRIKTAVIGAVYRKALVITNAARKSSTVGEIVNLMSVDAQRFMDLATYINMIWSAPLQVILALYLLWLNLGPSVLAGVAVMVLMVPLNAVMAMKTKTYQVAHMKSKDNRIKLMNEILNGIKVLKLYAWELAFKDKVLAIRQEELKVLKKSAYLAAVGTFTWVCTPFLVALSTFAVYVTVDENNILDAQKAFVSLALFNILRFPLNILPMVISSIVQASVSLKRLRVFLSHEDLDPDSIQRRPIKDAGATNSITVKNATFTWARNDPPTLHGITFSVPEGSLVAVVGQVGCGKSSLLSALLAEMDKVEGHVTVKGSVAYVPQQAWIQNISLRENILFGRQLQERYYKAVVEACALLPDLEILPSGDRTEIGEKGVNLSGGQKQRVSLARAVYCDSDVYLLDDPLSAVDAHVGKHIFENVIGPKGLLKNKTRLLVTHAISYLPQMDVIIVMSGGKISEMGSYQELLARDGAFAEFLRTYASAEQEQGQPEDGLAGVGGPGKEVKQMENGMLVTDTAGKQMQRQLSSSSSYSRDVSQHHTSTAELRKPGPTEETWKLVEADKAQTGQVKLSVYWDYMKAIGLFISFLSIFLFLCNHVASLVSNYWLSLWTDDPIVNGTQEHTQVRLSVYGALGISQGITVFGYSMAVSIGGIFASRRLHLDLLHNVLRSPISFFERTPSGNLVNRFSKELDTVDSMIPQVIKMFMGSLFNVIGACIIILLATPMAAVIIPPLGLIYFFVQRFYVASSRQLKRLESVSRSPVYSHFNETLLGVSVIRAFEEQERFIRQSDLKVDENQKAYYPSIVANRWLAVRLECVGNCIVLFASLFAVISRHSLSAGLVGLSVSYSLQVTTYLNWLVRMSSEMETNIVAVERLKEYSETEKEAPWQIQDMAPPKDWPQVGRVEFRDYGLRYREDLDLVLKHINVTIDGGEKVGIVGRTGAGKSSLTLGLFRIKESAEGEIIIDDINIAKIGLHDLRFKITIIPQDPVLFSGSLRMNLDPFSQYSDEEVWTSLELAHLKGFVSALPDKLNHECAEGGENLSVGQRQLVCLARALLRKTKILVLDEATAAVDLETDDLIQSTIRTQFDDCTVLTIAHRLNTIMDYTRVIVLDKGEIQEWGSPSDLLQQRGLFYSMAKDSGLV
A Ki [1] of 70 nM and a Ki [2] of 95 nM were found for B1 in this work.
